# Test results: patent US20260315572 (published 2026)
# Starred links: 1 amine or outer side, 2 acyl side, 3 side chain; linkers in the order of their positions; H or OH if unused. Non-standard residues stand in square brackets, D forms with d. Groups on a side chain read outwards from the residue. No end group written: not given here. *: point of attachment. C20 diacid = O=C(O)CCCCCCCCCCCCCCCCCCC(=O)*; γGlu = O=C(O)[C@H](CCC(=O)[*:2])N[*:1]; AEEA = NCCOCCOCC(=O)O; Aib = CC(C)(N)C(=O)O
# T1: hGIPR (human, UniProt P48546)
# T1 chain: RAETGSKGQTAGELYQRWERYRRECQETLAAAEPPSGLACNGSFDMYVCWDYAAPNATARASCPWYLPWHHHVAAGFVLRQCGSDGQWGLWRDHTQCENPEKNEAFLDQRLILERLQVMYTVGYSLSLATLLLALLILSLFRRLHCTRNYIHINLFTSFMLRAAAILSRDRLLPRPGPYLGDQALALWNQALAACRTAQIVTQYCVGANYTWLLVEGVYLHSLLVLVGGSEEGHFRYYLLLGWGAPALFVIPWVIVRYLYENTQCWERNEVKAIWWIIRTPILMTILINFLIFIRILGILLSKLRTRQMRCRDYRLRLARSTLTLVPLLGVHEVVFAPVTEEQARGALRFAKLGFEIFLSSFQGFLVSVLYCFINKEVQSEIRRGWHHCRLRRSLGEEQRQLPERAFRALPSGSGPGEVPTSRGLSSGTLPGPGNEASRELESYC
# T2: hGLP-1R (human, UniProt P43220)
# T2 chain: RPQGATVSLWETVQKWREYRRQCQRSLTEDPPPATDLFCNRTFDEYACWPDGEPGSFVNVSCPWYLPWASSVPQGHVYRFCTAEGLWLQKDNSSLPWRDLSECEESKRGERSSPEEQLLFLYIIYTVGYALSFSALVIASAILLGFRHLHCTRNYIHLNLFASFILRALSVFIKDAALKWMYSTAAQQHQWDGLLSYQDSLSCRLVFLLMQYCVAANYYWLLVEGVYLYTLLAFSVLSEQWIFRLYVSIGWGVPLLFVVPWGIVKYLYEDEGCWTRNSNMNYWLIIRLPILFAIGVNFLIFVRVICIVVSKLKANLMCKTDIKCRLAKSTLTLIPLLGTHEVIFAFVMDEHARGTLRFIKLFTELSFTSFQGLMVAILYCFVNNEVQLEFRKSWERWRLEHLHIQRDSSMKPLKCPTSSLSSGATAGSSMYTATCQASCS
# B1: Example 1 (peptide)
# chain: Y[Aib]EGTFTSDYSI[Aib]LDKIAQK([AEEA-AEEA-γGlu-C20 diacid])AFVQWLIAGGP-OH
# modifications: N-terminus assumed
# SMILES: CC[C@H](C)[C@H](NC(=O)[C@H](CC(C)C)NC(=O)[C@H](Cc1c[nH]c2ccccc12)NC(=O)[C@H](CCC(N)=O)NC(=O)[C@@H](NC(=O)[C@H](Cc1ccccc1)NC(=O)[C@H](C)NC(=O)[C@H](CCCCNC(=O)COCCOCCNC(=O)COCCOCCNC(=O)CC[C@H](NC(=O)CCCCCCCCCCCCCCCCCCC(=O)O)C(=O)O)NC(=O)[C@H](CCC(N)=O)NC(=O)[C@H](C)NC(=O)[C@@H](NC(=O)[C@H](CCCCN)NC(=O)[C@H](CC(=O)O)NC(=O)[C@H](CC(C)C)NC(=O)C(C)(C)NC(=O)[C@@H](NC(=O)[C@H](CO)NC(=O)[C@H](Cc1ccc(O)cc1)NC(=O)[C@H](CC(=O)O)NC(=O)[C@H](CO)NC(=O)[C@@H](NC(=O)[C@H](Cc1ccccc1)NC(=O)[C@@H](NC(=O)CNC(=O)[C@H](CCC(=O)O)NC(=O)C(C)(C)NC(=O)[C@@H](N)Cc1ccc(O)cc1)[C@@H](C)O)[C@@H](C)O)[C@@H](C)CC)[C@@H](C)CC)C(C)C)C(=O)N[C@@H](C)C(=O)NCC(=O)NCC(=O)N1CCC[C@H]1C(=O)O
# Experiments:
# hGIPR = biological target: T1, hGIPR; test: competition, [125I]-GIP radioligand
# hGLP-1R = biological target: T2, hGLP-1R; test: competition, [125I]-GLP-1 radioligand
# hGCGR = hGCGR (human, UniProt P47871); test: competition, [125I]-glucagon radioligand
# hGCGR, sequence (P47871 26-477): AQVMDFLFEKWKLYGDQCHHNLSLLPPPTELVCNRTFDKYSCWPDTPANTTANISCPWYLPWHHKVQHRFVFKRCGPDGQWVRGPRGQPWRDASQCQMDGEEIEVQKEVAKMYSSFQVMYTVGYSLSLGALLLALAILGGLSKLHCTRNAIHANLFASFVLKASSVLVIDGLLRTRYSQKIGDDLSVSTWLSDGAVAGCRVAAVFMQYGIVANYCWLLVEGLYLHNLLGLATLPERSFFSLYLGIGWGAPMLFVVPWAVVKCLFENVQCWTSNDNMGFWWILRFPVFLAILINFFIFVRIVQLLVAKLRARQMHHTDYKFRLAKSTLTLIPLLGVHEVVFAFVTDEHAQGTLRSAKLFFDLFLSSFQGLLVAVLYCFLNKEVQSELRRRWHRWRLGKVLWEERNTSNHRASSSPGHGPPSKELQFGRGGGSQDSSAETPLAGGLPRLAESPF
binder,measurement,setting,value
B1,Ki,hGIPR,0.32 nM
same,Ki,hGLP-1R,10.9 nM
same,Ki,hGCGR,> 240 nM
